From US20060172357A1, “Detecting human antibodies in non-human serum” (Genentech, priority 2004, published 2006)
pKd: −log10 of the molar value.

Key:
[1] = biological target: full-length CD20 molecule (human) (UniProt P11836); test: ELISA, full-length CD20 coated at 1 µg/mL in PBS, detection sheep anti-hu IgG HRP (monkey adsorbed)
[2] = biological target: full-length CD20 molecule (human) (UniProt P11836); test: ELISA, full-length CD20 coated at 5 µg/mL in PBS, detection goat anti-hu F(ab')2 HRP
[3] = biological target: full-length CD20 molecule (human) (UniProt P11836); test: ELISA, full-length CD20 coated at 5 µg/mL in PBS, detection sheep anti-hu IgG HRP (monkey adsorbed)
[4] = biological target: full-length CD20 molecule (human) (UniProt P11836); test: ELISA, full-length CD20 coated at 1 µg/mL in PBS, detection goat anti-hu F(ab')2 HRP
[5] = biological target: Bis-biotin disulfide-cyclized CD20 35-mer; test: SPR Biacore 3000, method 2: Bis-CD20-35mer on streptavidin chip at 685 RU, 2H7-IgG injected, bivalent analyte model, apparent KD
[6] = biological target: T1, biotinylated CD20 35-mer (streptavidin plate ELISA; mono- or bis-biotin form not stated); test: ELISA, streptavidin plate with CD20 35-mer at 20 µg/ml, 1 wash cycle between steps, goat anti-human IgG (H+L) HRP detection
T1 sequence (peptide, biotinylated (mono or bis not stated); C-terminal amide; disulfide-cyclized): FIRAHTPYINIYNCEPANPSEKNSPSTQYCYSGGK

[7] = biological target: disulfide-cyclized Bis-biotin CD20 51-mer; test: SPR Biacore 3000, method 2: Bis-CD20-51mer on streptavidin chip at 1037 RU, 2H7-IgG injected, bivalent analyte model, apparent KD
[8] = biological target: T1, biotinylated CD20 35-mer (streptavidin plate ELISA; mono- or bis-biotin form not stated); test: ELISA, streptavidin plate with CD20 35-mer at 10 µg/ml, 3 wash cycles between steps, goat anti-human IgG (H+L) HRP detection
[9] = biological target: T1, biotinylated CD20 35-mer (streptavidin plate ELISA; mono- or bis-biotin form not stated); test: ELISA, streptavidin plate with CD20 35-mer at 10 µg/ml, 2 wash cycles between steps, goat anti-human IgG (H+L) HRP detection
[10] = biological target: T1, biotinylated CD20 35-mer (streptavidin plate ELISA; mono- or bis-biotin form not stated); test: ELISA, streptavidin plate with CD20 35-mer at 20 µg/ml, 2 wash cycles between steps, goat anti-human IgG (H+L) HRP detection
[11] = biological target: T2, disulfide-cyclized mono-biotin CD20 35-mer; test: SPR Biacore 3000, method 1: Mono-CD20-35mer on streptavidin chip at 95 RU, 2H7-IgG injected, 1:1 model, apparent KD
T2 sequence (peptide, N-terminal biotin; C-terminal amide; disulfide-cyclized): T1 sequence (peptide, biotinylated (mono or bis not stated); C-terminal amide; disulfide-cyclized)

[12] = biological target: T1, biotinylated CD20 35-mer (streptavidin plate ELISA; mono- or bis-biotin form not stated); test: ELISA, streptavidin plate with CD20 35-mer at 10 µg/ml, 1 wash cycle between steps, goat anti-human IgG (H+L) HRP detection
[13] = biological target: T1, biotinylated CD20 35-mer (streptavidin plate ELISA; mono- or bis-biotin form not stated); test: ELISA, streptavidin plate with CD20 35-mer at 2 µg/ml, 1 wash cycle between steps, goat anti-human IgG (H+L) HRP detection
[14] = biological target: rhuMAb2H7; test: direct sandwich ELISA, sheep anti-human IgG capture, goat anti-human IgG HRP detection, buffer D (with BGG) in all steps, n = 8
[15] = biological target: rhuMAb2H7; test: direct sandwich ELISA, sheep anti-human IgG capture, goat anti-human IgG (H+L) HRP detection diluted in Buffer D - BGG (D1)
[16] = biological target: rhuMAb2H7; test: bridging ELISA, sheep anti-human IgG capture and detection; D1 + 0.2% rabbit IgG in blocking, sample and detection buffers
[17] = biological target: rhuMAb2H7; test: direct sandwich ELISA, sheep anti-human IgG capture, goat anti-human IgG HRP detection, buffer E (HEPES) in all steps, n = 8
[18] = biological target: rhuMAb2H7; test: direct sandwich ELISA, sheep anti-human IgG capture, goat anti-human IgG HRP detection, buffer A in all steps, n = 8
[19] = biological target: rhuMAb2H7; test: bridging ELISA, sheep anti-human IgG capture and detection; D1 + 0.2% mouse IgG in blocking, sample and detection buffers
[20] = biological target: rhuMAb2H7; test: bridging ELISA, sheep anti-human IgG capture and detection; blocking D1 + 0.2% fish gelatin, other diluents not given
[21] = biological target: rhuMAb2H7; test: direct sandwich ELISA, sheep anti-human IgG capture, goat anti-human IgG (H+L) HRP detection diluted in Buffer A
[22] = biological target: rhuMAb2H7; test: direct sandwich ELISA, sheep anti-human IgG capture, goat anti-human IgG (H+L) HRP detection diluted in Buffer D
[23] = biological target: rhuMAb2H7; test: direct sandwich ELISA, sheep anti-human IgG capture, goat anti-human IgG HRP detection, buffer B in all steps, n = 8
[24] = biological target: rhuMAb2H7; test: bridging ELISA, sheep anti-human IgG capture and detection; D1 + 0.2% donkey IgG in blocking, sample and detection buffers
[25] = biological target: rhuMAb2H7; test: bridging ELISA, sheep anti-human IgG capture and detection; blocking D, sample diluent D, detection diluent D
[26] = biological target: rhuMAb2H7; test: bridging ELISA, sheep anti-human IgG capture and detection; blocking D, sample diluent D1, detection diluent D1
[27] = biological target: rhuMAb2H7; test: bridging ELISA, sheep anti-human IgG capture and detection; blocking D, sample diluent D, detection diluent A
[28] = biological target: rhuMAb2H7; test: direct sandwich ELISA, sheep anti-human IgG capture, goat anti-human IgG (H+L) HRP detection diluted in Buffer A + 5 mM EDTA (A3)
[29] = biological target: rhuMAb2H7; test: direct sandwich ELISA, sheep anti-human IgG capture, goat anti-human IgG (H+L) HRP detection diluted in Buffer A + 0.25% CHAPS (A4)
[30] = biological target: rhuMAb2H7; test: direct sandwich ELISA, sheep anti-human IgG capture, goat anti-human IgG (H+L) HRP detection diluted in Buffer A + 0.35 M NaCl (A1)
[31] = biological target: rhuMAb2H7; test: direct sandwich ELISA, sheep anti-human IgG capture, goat anti-human IgG (H+L) HRP detection diluted in Buffer A + 0.2% BGG (A2)
[32] = biological target: rhuMAb2H7; test: direct sandwich ELISA, sheep anti-human IgG capture, goat anti-human IgG HRP detection, buffer C (with BGG) in all steps, n = 8

Chain of rhuMAb2H7 (antibody) (VH): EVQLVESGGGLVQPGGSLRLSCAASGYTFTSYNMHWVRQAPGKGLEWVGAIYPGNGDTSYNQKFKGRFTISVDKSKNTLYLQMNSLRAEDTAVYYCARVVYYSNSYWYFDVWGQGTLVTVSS
Chain of rhuMAb2H7 (antibody) (VL): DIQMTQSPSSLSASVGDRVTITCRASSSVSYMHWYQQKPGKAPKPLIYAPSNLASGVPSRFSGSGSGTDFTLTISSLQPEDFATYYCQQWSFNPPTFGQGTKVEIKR
Chain of full-length CD20 molecule (human) (P11836 whole entry): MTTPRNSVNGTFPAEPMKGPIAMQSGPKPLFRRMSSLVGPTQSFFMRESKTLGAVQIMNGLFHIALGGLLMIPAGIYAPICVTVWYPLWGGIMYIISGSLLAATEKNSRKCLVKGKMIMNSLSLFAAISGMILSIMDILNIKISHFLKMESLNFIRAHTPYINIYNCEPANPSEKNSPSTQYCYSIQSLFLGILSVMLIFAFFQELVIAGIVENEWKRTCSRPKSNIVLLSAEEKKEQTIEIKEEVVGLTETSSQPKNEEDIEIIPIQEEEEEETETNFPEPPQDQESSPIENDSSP
Chain of disulfide-cyclized Bis-biotin CD20 51-mer (peptide, as listed by the source): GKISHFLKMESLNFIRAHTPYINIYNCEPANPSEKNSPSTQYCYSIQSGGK

**Q.** What does the source list for Rituxan (antibody)?
**A.** signal of 247 ng/ml of Rituxan (O.D.450 nm) [1]: 0.012 O.D.; signal of 247 ng/ml of Rituxan (O.D.450 nm) [2]: 0.166 O.D.; signal of 247 ng/ml of Rituxan (O.D.450 nm) [3]: 0.023 O.D.; signal of 247 ng/ml of Rituxan (O.D.450 nm) [4]: 0.065 O.D.

**Q.** With rhuMAb2H7 (antibody) as the substance, how does the pKd [5] read?
**A.** 6.30

**Q.** And the O.D. (450-650 nm) for 160 µg/ml of rhuMAb2H7 [6]?
**A.** 0.055 O.D.

**Q.** And the pKd [7]?
**A.** 6.96

**Q.** What about the O.D. (450-650 nm) for 160 µg/ml of rhuMAb2H7 [8] of the same substance?
**A.** 0.009 O.D.

**Q.** And the O.D. (450-650 nm) for 160 µg/ml of rhuMAb2H7 [9]?
**A.** 0.009 O.D.

**Q.** And the O.D. (450-650 nm) for 160 µg/ml of rhuMAb2H7 [10]?
**A.** 0.01 O.D.

**Q.** And the pKd [11]?
**A.** 4.38

**Q.** What about the O.D. (450-650 nm) for 160 µg/ml of rhuMAb2H7 [12] of the same substance?
**A.** 0.063 O.D.

**Q.** And the O.D. (450-650 nm) for 160 µg/ml of rhuMAb2H7 [13]?
**A.** 0.063 O.D.

**Q.** “sheep anti-human IgG heavy (H) and light (L) chain, cynomolgus monkey serum adsorbed (Cat #CUS1684, The Binding Site) (antibody)” was tested. Which Signal, O.D. 450-650 nm at 240 ng/ml rhuMAb2H7 [14] did it give?
**A.** 1.72 O.D.

**Q.** What about the 240 ng/ml 2H7 (O.D. 450-650 nm) [15] of the same substance?
**A.** 1.65 O.D.

**Q.** And the Signal of 2H7 at 240 ng/ml [16]?
**A.** 0.06 O.D.

**Q.** And the Signal, O.D. 450-650 nm at 240 ng/ml rhuMAb2H7 [17]?
**A.** 2.1 O.D.

**Q.** What about the Signal, O.D. 450-650 nm at 240 ng/ml rhuMAb2H7 [18] of the same substance?
**A.** 2.04 O.D.

**Q.** And the Signal of 2H7 at 240 ng/ml [19]?
**A.** 0.09 O.D.

**Q.** And the Signal of 2H7 at 240 ng/ml [20]?
**A.** 0.34 O.D.

**Q.** What about the 240 ng/ml 2H7 (O.D. 450-650 nm) [21] of the same substance?
**A.** 2.23 O.D.

**Q.** What about the 240 ng/ml 2H7 (O.D. 450-650 nm) [22] of the same substance?
**A.** 0.962 O.D.

**Q.** And the Signal, O.D. 450-650 nm at 240 ng/ml rhuMAb2H7 [23]?
**A.** 1.91 O.D.

**Q.** And the Signal of 2H7 at 240 ng/ml [24]?
**A.** 0.38 O.D.

**Q.** And the Signal of 2H7 at 240 ng/ml [25]?
**A.** 1.15 O.D.

**Q.** And the Signal of 2H7 at 240 ng/ml [26]?
**A.** 1.04 O.D.

**Q.** And the Signal of 256 ng/ml of 2H7 [27]?
**A.** 1.6 O.D.

**Q.** And the 240 ng/ml 2H7 (O.D. 450-650 nm) [28]?
**A.** 2.13 O.D.

**Q.** What about the 240 ng/ml 2H7 (O.D. 450-650 nm) [29] of the same substance?
**A.** 2.15 O.D.

**Q.** And the 240 ng/ml 2H7 (O.D. 450-650 nm) [30]?
**A.** 2 O.D.

**Q.** What about the 240 ng/ml 2H7 (O.D. 450-650 nm) [31] of the same substance?
**A.** 2.28 O.D.

**Q.** What about the Signal, O.D. 450-650 nm at 240 ng/ml rhuMAb2H7 [32] of the same substance?
**A.** 1.88 O.D.
